Reference: patent US20230416362A1 (INDUSTRIAL TECHNOLOGY RESEARCH INSTITUTE, published 2023)
Positions count from the first letter of the chain named. In names and notes the source's numbering stands. One block for each binder: values may come before it.

Columns and labels:
[1] = molecular target: T1, TIGIT-biotin (TIGIT:CD155 Homogeneous Assay Kit, #72029) (human, UniProt Q495A1 22-141, limits assumed, biotin (site not stated)); assay: AlphaLISA competition: TIGIT-biotin with antibody, then histidine-tagged CD155 as competitor
T1 construct: Kit reagent; also called human TIGIT
T1 chain: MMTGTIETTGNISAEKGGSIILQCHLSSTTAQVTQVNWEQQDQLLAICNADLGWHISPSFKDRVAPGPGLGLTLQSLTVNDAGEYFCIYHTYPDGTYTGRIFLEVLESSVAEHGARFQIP
Description: To evaluate inhibition of binding of TIGIT to CD155 by anti-TIGIT antibodies, AlphaLISA assays were performed using a TIGIT:CD155 Homogeneous Assay Kit (PBS Biosciences, #72029). Aliquots (6 μl) of solution containing TIGIT-biotin (final concentration 0.2 ng/μl) and 4-fold serial dilution of the test antibodies (final volume 2 μl) were added into a 384-well plate. The plates were covered with a lid and incubated at room temperature for 30 min. Then, 2 μl of histidine-tagged CD155 were added (final concentration 0.05 ng/μl) into each well and incubated at room temperature for 60 min. Finally, aliquots (5 μl) of streptavidin-conjugated donor beads (final concentration 10 μg/ml) and 5 μl of anti-His tag acceptor beads (final concentration 20 μg/ml) were added and the plate was incubated at room temperature for 30 min in the dark. AlphaLISA signals were measured on an EnSpire Alpha 2390 (Perkin-Elmer Life Sciences). 15A6 (U.S. Pat. No. 10,189,902) and MBSA43 (Thermo Fisher Scientific, #16-9500-82) were used as reference antibodies.
These antibodies were selected for further functional studies.

[2] = molecular target: T2, human TIGIT expressed on cells (TIGIT/Jurkat cells; MJ[G11] cells; PBMC T cells) (human, UniProt Q495A1 22-244); assay: flow cytometry on TIGIT/Jurkat cells
T2 construct: The cell line is named under assay; also called human TIGIT-expressing Jurkat cells
T2 sequence: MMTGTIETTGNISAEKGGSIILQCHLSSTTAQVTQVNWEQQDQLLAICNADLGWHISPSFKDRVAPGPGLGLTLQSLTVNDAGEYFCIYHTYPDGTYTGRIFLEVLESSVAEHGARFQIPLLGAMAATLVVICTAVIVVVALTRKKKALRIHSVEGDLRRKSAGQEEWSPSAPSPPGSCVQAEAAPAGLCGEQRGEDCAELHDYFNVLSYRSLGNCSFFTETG
Description: Sequential dilutions of Protein A column-purified 7D4, 2C9, and 3A9 antibodies were separately incubated with 5×10⁵ of human TIGIT-expressing Jurkat cells (TIGIT/Jurkat) in 50 μl of FACS buffer (0.2% BSA in Dulbecco's phosphate-buffered saline (DPBS) containing 0.09% sodium azide) on ice for 1 hour. After washing, the cells were stained with anti-mouse IgG conjugated with PE dyes and antibody binding strength was analyzed by flow cytometry.

[3] = molecular target: T3, recombinant mouse TIGIT IgV domain (mouse, UniProt P86176 29-145); assay: ELISA on coated recombinant TIGIT IgV domain
T3 construct: Made in NS0 cells, purified on Strep-Tactin XT; Biotinylated for phage panning; also called biotinylated mouse TIGIT IgV domain
T3 sequence: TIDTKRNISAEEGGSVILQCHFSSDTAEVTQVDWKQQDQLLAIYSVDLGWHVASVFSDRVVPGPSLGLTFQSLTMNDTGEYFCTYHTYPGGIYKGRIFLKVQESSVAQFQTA
Description: To assess species cross-reactivity of anti-TIGIT antibodies 7D4, 2C9, and 3A9, ELISA binding assays to human, cynomolgus monkey, and mouse TIGIT were performed. 1 μg/ml each of human, cyno (R&D Systems, Inc., #9380-TG), and mouse TIGIT in 50 μl of DPBS were coated on 96-well plates at 4° C. for overnight. After washing the plates with phosphate-buffered saline containing 0.05% of Tween 20 (PBST), a sequential dilution of 7D4, 2C9, and 3A9 antibodies was added separately and the plates were incubated at 37° C. for 1 hour. After washing the plates three times with PBST, the plates were incubated with an anti-mouse Fey polyclonal antibody conjugated with horseradish peroxidase (HRP) at 37° C. for 1 hour. After washing the plates three times with PBST, 100 μl of 3,3′,5,5′-tetra-methylbenzidine (TMB) substrate (Thermo Fisher Scientific, #34018) were added into each well. After 5 to 10 min of color development, 50 μl of stop solution (2 N of HCl) were added into each well and plates were read by spectrophotometer at a wavelength of 450 nm.

[4] = molecular target: T4, human TIGIT IgV domain Q56A (human, UniProt Q495A1 22-141, limits assumed); assay: ELISA on TIGIT IgV point mutants
T4 construct: Made in Expi293F cells, purified on Strep-Tactin XT; Limits of the IgV domain not readable, whole entry named; also called Q56 single alanine substitution mutant
T4 chain: T1 chain with Q35A
Description: (§1) To further identify the amino acid residues of TIGIT that interact with the recombinant 7D4 mIgG2a antibody, single alanine substitution mutants were generated in the human TIGIT IgV domain by site-directed mutagenesis using standard molecular techniques. ELISA binding assays were then performed to assess 7D4 binding strength.
(§2) To identify the amino acid residues of TIGIT that interact with the humanized 7D4 variant, 1A11 (in human IgG1-DLE isotype), ELISA binding assays with the single alanine substitution mutants were performed to assess 1A11 binding strength. […] Similar to the parental mouse 7D4 antibody, Q56 and Y106 single alanine substitution mutants completely abolished the binding of 1A11.

[5] = molecular target: T5, human TIGIT IgV domain H111 single alanine substitution mutant (human, UniProt Q495A1 22-141, limits assumed); assay: ELISA on TIGIT IgV point mutants
T5 construct: Printed as "H111" in the list of mutants; the text calls it a single alanine substitution mutant; Limits of the IgV domain not readable, whole entry named; also called H111A
T5 chain: T1 chain with H90A
Description: as §1, §2

[6] = molecular target: T6, human TIGIT IgV domain Y110A (human, UniProt Q495A1 22-141, limits assumed); assay: ELISA on TIGIT IgV point mutants
T6 construct: Made in Expi293F cells, purified on Strep-Tactin XT; Limits of the IgV domain not readable, whole entry named; also called Y110 single alanine substitution mutant
T6 chain: T1 chain with Y89A
Description: as §1, §2

[7] = molecular target: T7, human TIGIT IgV domain Y106A (human, UniProt Q495A1 22-141, limits assumed); assay: ELISA on TIGIT IgV point mutants
T7 construct: Made in Expi293F cells, purified on Strep-Tactin XT; Limits of the IgV domain not readable, whole entry named; also called Y106 single alanine substitution mutant
T7 chain: T1 chain with Y85A
Description: as §1, §2

[8] = molecular target: T8, human TIGIT IgV domain G74A (human, UniProt Q495A1 22-141, limits assumed); assay: ELISA on TIGIT IgV point mutants
T8 construct: Made in Expi293F cells, purified on Strep-Tactin XT; Limits of the IgV domain not readable, whole entry named; also called G74 single alanine substitution mutant
T8 chain: T1 chain with G53A
Description: as §1, §2

[9] = molecular target: T9, mTIGIT (ELISA of Table 7) (mouse, UniProt P86176 29-145, limits assumed); assay: mTIGIT/mCD155 competition ELISA; competitor mCD155
T9 construct: also called mouse TIGIT
T9 sequence (looked up): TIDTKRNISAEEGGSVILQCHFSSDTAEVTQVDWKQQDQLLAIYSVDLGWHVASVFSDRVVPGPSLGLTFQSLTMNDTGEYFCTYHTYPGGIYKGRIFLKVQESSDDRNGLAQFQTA

[10] = molecular target: T9, mTIGIT (ELISA of Table 7); assay: ELISA binding
[11] = molecular target: T10, hTIGIT (ELISA of Table 7) (human, UniProt Q495A1 22-141, limits assumed); assay: ELISA binding
T10 construct: whole entry named; also called human TIGIT
T10 chain: T1 chain

IC50 [1]: 0.4 nM
Kd [2]: 2 nM
B1: 2C9 (antibody, V domains shown)
VH: DIQLKQSGAELVRPGASVKLSCKASGYTFTDSYINWVKQRPGQGLEWIARFYPGSGNTYYNEKFKGKATLTAEKSSSTAYMQLSSLTSEDSAVYFCAREAWLLFYGMDYWGQGTTVTVSS
VL: DIVLTQSPAIMSASPGEKVTISCSANSSVSYMYWYQQKPGSSPKPWIYRTSNLASGVPARFSGSGSGTSYSLTISSMEAEDAATYYCQQYHSYPLTFGAGTKLELK
notes: Mouse monoclonal antibody from hybridoma clone 2C9, Protein A purified; also called anti-TIGIT monoclonal antibody 2C9

IC50 [1]: 0.55 nM
Kd [2]: 1.86 nM
B2: 3A9 (antibody, V domains shown)
VH: QVQLQQPGAELVRPGSSVKLSCKASGYTFTSYWMHWVKQRPIQGLEWIGNIDPSDSATHYNQKFKDKATLTVDKSSSTAYMHLSSLTSEDSAVYYCARTGIDYGSSYFDYWGQGTILTVSS
VL: DIVLTQSPASLAVSLGQRATISCRASQSVSTSSYSYIHWYQQKPGQPPKLLIKYASNLESGVPARFSGSGSGTDFTLNIHPVEEEDTATYYCQHNWEIPRTFGGGTKLEIK
notes: Mouse monoclonal antibody from hybridoma clone 3A9, Protein A purified; also called anti-TIGIT monoclonal antibody 3A9

EC50 [3]: 10.5 nM
IC50 [1]: 0.32 nM
Kd [2]: 0.27 nM
B3: 7D4 (antibody, V domains shown)
VH: QVQLKHSGAELVRPGTSVKMSCKASGYTFTNYWIGWAKQRPGHGLEWIGDIYPGSSFTNSNEKFKGKATLTADKSSSTAYMQFSSLTSEDSAIYYCAKLGRGYWYFDVWGTGTSVTVSA
VL: DIVLTQSPAIMSASLGEEITLTCSASSSVSYIHWYQQKSGTSPKLLIYTTSNLASGVPSRFSGSGSGTFYSLTISSVEAEDAADYYCHQWSRYPTFGGGTKLEIK
notes: Mouse monoclonal antibody from hybridoma clone 7D4, Protein A purified; also called anti-TIGIT monoclonal antibody 7D4; parental mouse 7D4 antibody

binding result [4]: no binding
reduction in binding against the wild type [5]: > 50%
reduction in binding against the wild type [6]: > 50%
binding result [7]: no binding
reduction in binding against the wild type [8]: 50%
B4: recombinant 7D4 mIgG2a antibody (antibody, V domains shown)
VH: B3 VH
VL: B3 VL
notes: Recombinant form with mouse IgG2a constant region (vector pFUSEss-CHIg-mG2a); also called recombinant 7D4 antibody (in mouse IgG2a isotype)

IC50 [9]: 61.7 nM
EC50 [10]: 3.6 nM
EC50 [11]: 9.4 nM
B5: 1G3 mIgG2a-DLE (antibody, V domains shown)
VH: DIQLVQSGGGLVKPGGSLRLSCAASGYTFTNYWIGWVRQTPGKGLEWVGDIYPGSSFTNSNEKFKGRFTISADKSKNTAYLQMNSLRAEDTAVYYCARDMVGYWYFDVWGQGTLVTVSS
VL: DIVLTQSPATLSASLGERATLSCSASSSVSYIHWYQQKPGQAPKLLIYTTSNLASGVPSRFSGSGSGTDFTLTISSLEAEDFATYYCHQWSRYPTFGGGTKLEIK
notes: Mouse IgG2a isotype with DLE (S239D/A330L/I332E) mutations at the Fc region

binding result [4]: no binding
reduction in binding against the wild type [5]: > 40%
reduction in binding against the wild type [6]: > 40%
binding result [7]: no binding
reduction in binding against the wild type [8]: > 40%
B6: 1A11 hIgG1-DLE (antibody, V domains shown)
VH: B5 VH with D1E, I2V, D99L, M100G, V101R
VL: DIVLTQSPATLSASLGERATLSCSASSSVSYIHWYQQKPGQAPKLLIYTTSNLASGVPSRFSGSGSGTDFTLTISSLEAEDFATYYCQLFRSGSAFGGGTKLEIKR
notes: Human IgG1 with DLE mutations at the Fc region, expressed in CHO-S cells; also called humanized 7D4 variant 1A11 (in human IgG1-DLE isotype)

IC50 [9]: 12.4 nM
EC50 [10]: 0.7 nM
EC50 [11]: 0.9 nM
B7: 3H2 mIgG2a-DLE (antibody, V domains shown)
VH: B5 VH with D99I, M100R, V101L
VL: B5 VL
notes: as for B5

IC50 [9]: 33.8 nM
EC50 [10]: 1.1 nM
EC50 [11]: 464 nM
B8: 2F1 mIgG2a-DLE (antibody, V domains shown)
VH: B5 VH with D99V, M100I
VL: B5 VL
notes: as for B5

EC50 [10]: 217 nM
EC50 [11]: 0.3 nM
B9: hz7D4 mIgG2a (antibody, V domains shown)
VH: B5 VH with D1E, I2V, D99L, M100G, V101R
VL: B5 VL
